± gives the uncertainty stated by the source.
B1: Ras GTPase-activating protein 1, residues 281 to 341; numbered along this chain, P20936 (parent)
chain: RRRVRAILPYTKVPDTDEISFLKGDMFIVHNELEDGWMWVTNLRTDEQGLIVEDLVEEVGR

Variants of: B1
Experiment: abundance fitness (aPCA) (normalised: wild type 0, dead -1); higher = more abundant; growth selection in yeast, the domain comes from the species named
Details: Homo sapiens

Variant | abundance fitness
I28H | -0.069 ± 0.022
I28R | -0.206 ± 0.021
I28P | -0.85 ± 0.04
I28A | -0.068 ± 0.022
I28E | 0.098 ± 0.034
I28T | -0.011 ± 0.023
I28M | -0.029 ± 0.031
I28V | -0.016 ± 0.021
I28C | -0.07 ± 0.021
I28Q | -0.047 ± 0.042
I28K | -0.07 ± 0.033
I28G | -0.604 ± 0.022
I28L | -0.038 ± 0.022
I28Y | -0.079 ± 0.022
I28W | -0.136 ± 0.03
I28N | -0.102 ± 0.022
I28D | 0.029 ± 0.022
N31D | 0.046 ± 0.033
N31G | -0.072 ± 0.028
N31F | -0.17 ± 0.029
N31R | 0.073 ± 0.027
N31P | -0.841 ± 0.068
N31E | -0.038 ± 0.056
N31L | -0.174 ± 0.029

Variant | abundance fitness
N31A | -0.036 ± 0.032
N31M | -0.044 ± 0.051
N31K | 0.034 ± 0.06
N31V | -0.159 ± 0.028
N31C | -0.129 ± 0.027
N31T | -0.046 ± 0.03
F27K | -0.965 ± 0.13
F27Q | -0.815 ± 0.12
F27D | -0.748 ± 0.051
F27P | -0.74 ± 0.081
F27G | -0.82 ± 0.04
F27A | -0.901 ± 0.06
F27C | -0.485 ± 0.029
F27L | -0.241 ± 0.029
F27Y | -0.834 ± 0.045
F27V | -0.901 ± 0.045
F27W | -0.957 ± 0.1
F27R | -0.905 ± 0.054
F27T | -0.914 ± 0.069
F27H | -0.724 ± 0.05
F27M | -0.108 ± 0.07
F27I | -0.864 ± 0.044
F27S | -0.798 ± 0.036
K23H | -0.313 ± 0.031

Variant | abundance fitness
K23M | -0.149 ± 0.033
K23L | -0.232 ± 0.027
K23W | -0.482 ± 0.037
K23I | -0.148 ± 0.021
K23A | -0.038 ± 0.031
K23Y | -0.269 ± 0.023
K23Q | -0.061 ± 0.043
K23R | -0.094 ± 0.022
K23G | -0.23 ± 0.025
K23S | -0.102 ± 0.02
K23V | -0.13 ± 0.028
K23P | -0.048 ± 0.034
K23N | -0.246 ± 0.023
K23T | -0.058 ± 0.024
K23C | -0.16 ± 0.023
K23E | 0.006 ± 0.041
V29N | -0.823 ± 0.049
V29S | -0.866 ± 0.043
V29M | -0.644 ± 0.1
V29A | -0.694 ± 0.041
V29F | -0.913 ± 0.055
V29L | -0.473 ± 0.034
V29T | -0.879 ± 0.059
V29E | -0.873 ± 0.11

Variant | abundance fitness
V29R | -0.636 ± 0.045
V29H | -0.881 ± 0.062
V29C | -0.363 ± 0.029
V29Q | -0.954 ± 0.16
V29G | -0.861 ± 0.039
V29I | -0.057 ± 0.029
V29D | -0.764 ± 0.043
V29P | -0.959 ± 0.079
V29W | -0.951 ± 0.13
V29Y | -0.879 ± 0.049
D25H | -0.895 ± 0.059
D25L | -0.852 ± 0.062
D25R | -0.997 ± 0.062
D25S | -0.874 ± 0.042
D25I | -0.946 ± 0.059
D25P | -0.664 ± 0.093
D25E | -0.712 ± 0.094
D25V | -0.904 ± 0.046
D25Y | -0.948 ± 0.051
D25Q | -0.768 ± 0.22
D25C | -0.864 ± 0.047
D25F | -0.822 ± 0.047
D25W | -1.11 ± 0.17
D25A | -0.949 ± 0.066

Variant | abundance fitness
L22G | -0.229 ± 0.034
L22P | -1.15 ± 0.19
L22H | -0.013 ± 0.041
L22F | -0.145 ± 0.029
L22T | -0.153 ± 0.039
L22I | 0.001 ± 0.033
L22V | -0.038 ± 0.035
L22S | -0.108 ± 0.029
L22Y | -0.102 ± 0.035
L22M | -0.054 ± 0.062
L22R | -0.045 ± 0.032
L22K | -0.07 ± 0.073
L22W | -0.102 ± 0.058
L22N | -0.013 ± 0.034
L22Q | 0.045 ± 0.13
M26Y | -0.028 ± 0.029
M26I | -0.039 ± 0.031
M26F | -0.042 ± 0.029
M26H | -0.061 ± 0.034
M26W | -0.104 ± 0.048
M26P | -0.325 ± 0.047
M26C | -0.042 ± 0.027
M26A | -0.177 ± 0.033
M26S | -0.125 ± 0.028

Variant | abundance fitness
M26L | -0.026 ± 0.03
M26D | 0.012 ± 0.03
M26R | -0.186 ± 0.032
M26Q | -0.056 ± 0.062
M26E | 0.117 ± 0.057
M26N | -0.029 ± 0.031
M26K | -0.333 ± 0.083
M26T | -0.03 ± 0.038
M26G | -0.416 ± 0.03
G24L | -0.885 ± 0.054
G24F | -0.584 ± 0.035
G24M | -0.59 ± 0.078
G24H | -0.201 ± 0.033
G24I | -0.933 ± 0.061
G24N | -0.133 ± 0.033
G24C | -0.733 ± 0.036
G24K | -0.981 ± 0.16
G24S | -0.362 ± 0.027
G24Q | -0.628 ± 0.11
G24D | -0.07 ± 0.031
G24P | -1.04 ± 0.11
G24R | -0.672 ± 0.039
G24E | -0.371 ± 0.052
G24T | -0.881 ± 0.066

Variant | abundance fitness
G24A | -0.495 ± 0.034
G24V | -0.751 ± 0.036
G24Y | -0.297 ± 0.033
G24W | -0.545 ± 0.057
H30N | -0.135 ± 0.028
H30K | -0.151 ± 0.065
H30D | -0.122 ± 0.031
H30M | -0.151 ± 0.049
H30R | -0.255 ± 0.029
H30A | -0.4 ± 0.033
H30E | 0.008 ± 0.077
H30Q | -0.033 ± 0.056
H30Y | -0.397 ± 0.034
H30W | -0.153 ± 0.045
H30I | -0.163 ± 0.03
H30F | -0.39 ± 0.033
H30G | -0.444 ± 0.028
H30P | -0.789 ± 0.061
H30S | -0.318 ± 0.026
H30T | -0.261 ± 0.037
H30L | -0.085 ± 0.03
H30V | -0.285 ± 0.029
H30C | -0.362 ± 0.028
